Results reported in patent KR20160003317A (dated 2016).

B1: SC06-409 (scFv)
scFv: EVQLVQSGAEVKKPGESLKISCKGSGYSFTNYWIGWVRQMPGKGLEWMGIIYPGDSDTRYSPSFQGQVTISADKSISTAYLQWSSLKASDTAMYYCARHTQNKNGMNTFDIWGQGTMVTVSSGTGGSGGTGSGTGGSTQSALTQPPSASGSPGQSVTISCTGTSSDIGGYNYVSWYQQHPGKAPKLMIYEVSNRPPGVSNRFSGSKSGNTASLTISGLQAEDEADYYCSSYSTTTTRVIFGGGTKLTVL
notes: single-chain phage antibody: the scFv stood on phage in the ELISA
B2: SC06-092 (scFv)
scFv: EVQLVESGGGLVQPGRSLRLSCTGSGFTFGDYAMSWFRQAPGKGLEWVGFIRNKAYGGTAEYAASVKDRFIISRDDSKSIAYLQMNSLKTEDTAVYYCVRREYDTGWLDYWGQGTLVTVSSGTGGSGGTGSGTGGSTQSALTQPPSASGSPGQSVTISCTGTSSDVGGYNYVSWYQRHPGKAPKLMIYDVTDRPSGVSNRFSGSKSGNTASLTISGLQAEDEADYYCSSYTSSSTSAVFGGGTKLTVL
notes: as for B1
B3: SC06-198 (scFv)
scFv: QLQLQESGPGLVKPSETLSLTCAVSGYSITSGYYWGWVRQPPGKGLEWIGSIYHTGSTYYNPSLKSRVTISVDTSKNQFSLKLNSLTAADTAVYFCASQSPAFDFWGQGTMVTVSSGTGGSGGTGSGTGGSTQSVLTQPPSVSGAPGQRVTISCTGSSSNIGTGYDVHWYQQLPGTAPKLLIYGNNNRPSGVPDRFSGSKSGTSASLAITGLQAEDEADYYCATWDDSLNGWVFGGGTKLTVP
notes: as for B1
B4: SC06-389 (scFv)
scFv: QVQLVQSGAEVKKPGESLKISCKGSGYSFSTYWIGWVRQMPGKGLEWMGIIYPGDSDTRYSPSFQGQVTISADKSISTAHLQWSSLKASDTAMYYCARPGPRGYNHGFDYWGQGTLVTVSSGTGGSGGTGSGTGGSTSSELTQDPAESVALGQTVKITCQGDSLRRYYASWYQQKPGQAPVLVIYGKNNRPSGIPDRFSGSRSGNTASLTITGAQAEDEAVYYCNSRDSSGNSVVFGGGTKLTVL
notes: as for B1
B5: SC06-241 (scFv)
scFv: EVQLVESGGGLVQPGRSLRLSCAASGFTFRSYAMYWVRQAPGKGLEWLALISHDASKMFYADSVKGRFTISRDNSKNTLSLQMNSLTIEDTAVYYCVRERTGYYGAYWGQGTLVTVSSGTGGSGGTGSGTGGSTDIQMTQSPSSLSASVGDRVTLTCRASQGIGTWLAWYQQKPGKAPKLLIYSASSLQSGVPSRFSGSGSGTDFTLSISNLQPEDFATYYCQQANSFPITFGQGTRLEIK
notes: as for B1
B6: SC06-089 (scFv)
scFv: EVQLVETGGGLVQPGGSLRLSCAASGFTFSSYSMNWVRQAPGKGLEWVSFISSSSSTIYYADSVKGRFTIARDNAKNSLYLQMNSLRDEDTAVYYCARPVGTGISLFHAFDIWGQGTMVTVSSGTGGSGGTGSGTGGSTQSVLTQPPSVSVAPGQTARITCGGNNIGSKYVHWYQQKPGQAPVLVVYDDSDRPSGIPERFSGSNSGNTATLTISRVEAGDEADFYCQVWDGSSDPVVFGGGTKLTVL
notes: as for B1
B7: SC06-402 (scFv)
scFv: QVQLVQSGAEVKKPGESLKISCKGSGYSFTSYWIGWVRQMPGKGLEWMGIIYPGDSDTRYSPSFQGQVTISADKSISTAYLQWSSLKASDTAMYYCARWGGVCSSTSCPNRDAFDIWGQGTMVTVSSGTGGSGGTGSGTGGSTQSALTQPRSVSGSPGQSVTISCTGTSSDVGGYNYVSWYQQHPGKAPKLMIYDVSNRPSGVSNRFSGSKSGNTASLTISGLQAEDEAEFHCSSYRSSGASPVVFGGGTKLTVL
notes: as for B1
B8: SC06-388 (scFv)
scFv: EVQLVETGAEVKKPGESLRISCKGSGYSFTSYWIAWVRQMPGKGLEWMGVIYPGDSDARYSPSFQGQVTMSVDKSISTAYLQWSSLKASDTAMYYCAKLRSKNTGLDYWGQGTLVTVSSGTGGSGGTGSGTGGSTQSALTQPPSASGSPGQSVTISCTGTSSDVGGYNFVSWYQQHPGKAPKLMIYEVSNRPSGVPDRFSGSKSGNTASLTVSGLQAEDEADYYCSSYAGNNNLAFGGGTQLTVL
notes: as for B1
B9: SC06-242 (scFv)
scFv: EVQLVESGPGLVKPSETLSLTCTVSGGSISSYYWSWIRQPPGKGLEWIGYIYYTGTTNYNPSLNSRVTISADTSKNQFSLKLSSVTAADTAVYYCARGGQTAGVWGKGTTVTVSSGTGGSGGTGSGTGGSTQSVLTQPPSVSVAPGQTARITCGGYNIGRKSVHWYQQKPGLAPVLVVYDNSDRPSGIPARFSGSNSGNTATLTISGTQAMDEADYYCQAWDRGTAVFGTGTKVTVL
notes: as for B1
B10: SC06-246 (scFv)
scFv: EVQLVESGGGLIQPGGSLRLSCAASGFTVSSDFMTWVRQAPGRGLEWVSLIYSGGKTNYADSVKGRFTISRDNSRNTLYLQMNSLRAEDTAVYYCARSVCSTISCSKLDDWGQGTLVTVSSGTGGSGGTGSGTGGSTQAVLTQPSSVSVAPGQTARITCGGNNIGRKSVHWYQQKPGLAPVLVVNDNSDRPSGIPARFSGSNSGNTATLTISRVEAGDEADYYCHVWGSSRDHYVFGTGTKVTVL
notes: as for B1
B11: SC06-077 (scFv)
scFv: QVQLVQSGAEVKKPGSSVKVSCKASGGTFSSYAISWVRQAPGQGLEWMGGIIPIFGTANYAQKFQGRVTITADESTSTAYMELSSLRSEDTAVYYCAREGGVGPAFDIWGQGTMVTVSSGTGGSGGTGSGTGGSTDIQMTQSPDSLAVSLGERATINCKSSQSVLHNSNNKNYLAWYQQKPGQPPKLLIYWASTRESGVPDRFSGSGSGTDFTLTISSLQAEDVAVYYCQQYYGSPYTFGQGTKLEIK
notes: as for B1
B12: SC06-079 (scFv)
scFv: EVQLVESGGGLVQPGGSLRLSCAASGFTFSSYAMSWVRQAPGKGLEWVSAISGTGGSAYYADSVKGRFTISRDNSKNTVYLQMNSLRAEDTAVYYCAKGHSSGTNWGQGTLVTVSSGTGGSGGTGSGTGGSTSYVLTQPPSASGTPGQRVTISCSGSSSNIGSNFVYWYQQLPGTAPKLLIYRNNQRPSGVPDRFSGSKSGTSASLAISGLRSEDEADYYCAAWDDSLSGVLFGGGTQLTVL
notes: as for B1
B13: SC05-157 (scFv)
scFv: EVQLVESGAEVKKPGESLKISCKGSGYSFTNYWIGWVRQMPGKGLEWMGIVYPGDSDTRYSPSFQGQVTISADKSISTAYLQWSSLKASDTAVYYCARRMAVAGSDAFDIWGQGTMVTVSSGTGGSGGTGSGTGGSTQAVLTQPSSASGTPGQTVTISCSGSTSNIGSHNVNWYQHLPGTAPKLLIYINNKRPSGVPDRFSGSKSGSSASLAISGLQSEDEADYYCAAWDDSLRRPVFGGGTQLTVL
notes: as for B1
B14: SC06-087 (scFv)
scFv: EVQLVESGGGLVKPGGSLRLSCAASGFTFSSNSMNWVRQAPGKGLEWVSFISSSSTYIYYADSVKGRFTISRDNAKNSLYLQMNSLRAEDTAVYYCARESAAGISYDAFDIWGQGTMVTVSSGTGGSGGTGSGTGGSTQSALTQPASVSGSPGQSITISCTGTSSDVGGYKYVSWYQQHPGKAPKLMIYEVSNRPSGVSNRFSGSKSGSTASLTISGLQAEDEADYYCSSYTSSSTLGVFGTGTKVTVL
notes: as for B1
B15: SC06-415 (scFv)
scFv: EVQLVESGGGLVQPGRSLRLSCAASGFTFDDYAMHWVRQAPGKGLEWVSGISWNSGSIGYADSVKGRFTISRDNAKNSLYLQMNSLRAEDSAVYYCARGGQRFDFWGQGTLVTVSSGTGGSGGTGSGTGGSTQSALTQPPSASGSPGQSVTISCTGTSSDVGGYNYVSWYQQLPGKAPKLLIYDVNNRPSGVSNRFSGSKSGNTASLTISGLQAEDEAEYYCGSSVGSRLRIFGGGTKLTVL
notes: as for B1
B16: SC06-078 (scFv)
scFv: EVQLVESGAEVKKPGSSVKVSCKASGGTFSSYAISWVRQAPGQGLEWMGGIIPIFGTANYAQKFQGKVTITADESTSTAYMELSSLRSEDTAVYYCARLSPRYYGMDVWGQGTTVTVSSGTGGSGGTGSGTGGSTQSALTQPRSVSGSPGQSVTISCTGTSSDVGGYNYVSWYQQHPGKAPKLMIYGGSERPSGVSNRFSGSKSGNTASLTISGVQAEDEADYYCSSYTSSGTLLFGGGTQLTVL
notes: as for B1
B17: SC06-071 (scFv)
scFv: EVQLVESGGGVVQPGRSLRLSCAASGFTFSSYGMHWVRQAPGKGLEWVAMIWSDGSNKYYADSVKGRFTISRDNSKNTLYLQMNSLRVEDTAVYYCASNYGSGSYWGGFDYWGQGTLVTVSSGTGGSGGTGSGTGGSTQSALTQPASVSGSPGQSITISCTGTSSDVGGYNLVSWYQQHPGKAPKLMIYEGSKRPSGVSNRFFGSKSGDTASLTISGLQAEDEADYYCSSYTTSSTHVFGTGTKVTVL
notes: as for B1
B18: SC06-252 (scFv)
scFv: EVQLVETGGGLVQPGGSLRLSCAASGLTFSSYAMSWVRQAPGKGLEWVSALSGSTTFYADSVKGRFTISRDNAKNTLYLQMNSLRAEDTAVYYCARGNYYGMDVWGQGTTVTVSSGTGGSGGTGSGTGGSTSYVLTQPPSASGTPGQRVTISCSGSSSNIGKFYVYWYQQFPGAAPKLLIYSNNQRPSGVPDRFSGSKSGTSASLAISGLQSEDEADYYCAAWDGSLNGYVFGTGTKVTVL
notes: as for B1
B19: SC06-191 (scFv)
scFv: EVQLVESGGGVVQPGRSLRLSCVASEFTFSNYGMHWVRQAPGKGLEWVAVIWYDGSNEDYADSVKGRFTISRDNSKNTVYLHMNSLRAEDTAVYFCTRGQYSSTWFLDYWGQGTLVTVSSGTGGSGGTGSGTGGSTDIQLTQSPSTLSASVGDRVTITCRASQSISSWLAWYQQKPGKAPKLLIYKASSLETGVPSRFSGSGSGTDFTLTISSLQPEDFATYYCQQANSFPLTFGGGTKVDIK
notes: as for B1
B20: SC05-159 (scFv)
scFv: QVQLVQSGAEVKKPGATVKISCKVSGYTFTDYYMHWVQQAPGKGLEWMGLVDPEDGETIYAEKFQGRVTITADTSTDTAYMELSSLRSDDTAVYYCARAEVMTTINNWYFDLWGRGTLVTVSSGTGGSGGTGSGTGGSTSYVLTQPPSASGTPGQRVTISCSGSSSNIGSNNVSWYQQLPGTAPKLLIYSNNQRPSGVPDRFSGSKSGTSASLAISGLQSEDEADYYCAAWDDSLNGWVFGGGTKLTVL
notes: as for B1

Target: T1, 송아지 혈청 알부민(BSA) (bovine (printed: 송아지 혈청 알부민), UniProt P02769 25-607)
T1 construct: also called bovine serum albumin
Experiment: phage ELISA, 1% BSA coated, anti-M13-peroxidase, absorbance 492 nm

T1 sequence (P02769 25-607 limits assumed): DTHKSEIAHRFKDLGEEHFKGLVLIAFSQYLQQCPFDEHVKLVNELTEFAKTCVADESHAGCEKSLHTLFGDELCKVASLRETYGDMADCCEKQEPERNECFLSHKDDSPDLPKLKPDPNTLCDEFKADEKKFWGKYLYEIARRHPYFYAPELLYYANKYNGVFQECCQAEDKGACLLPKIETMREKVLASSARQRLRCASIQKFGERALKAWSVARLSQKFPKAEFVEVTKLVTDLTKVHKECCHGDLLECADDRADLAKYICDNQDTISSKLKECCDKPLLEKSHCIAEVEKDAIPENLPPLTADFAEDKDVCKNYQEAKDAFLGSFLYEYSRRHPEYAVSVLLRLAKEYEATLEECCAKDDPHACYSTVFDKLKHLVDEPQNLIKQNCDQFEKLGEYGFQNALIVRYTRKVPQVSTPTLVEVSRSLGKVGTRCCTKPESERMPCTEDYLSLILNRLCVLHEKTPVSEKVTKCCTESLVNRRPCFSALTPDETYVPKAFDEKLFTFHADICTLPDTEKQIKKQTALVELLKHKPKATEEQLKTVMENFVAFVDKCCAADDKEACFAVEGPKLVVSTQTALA

Binder	binding result
B1	no binding
B2	no binding
B3	no binding
B4	no binding
B5	no binding
B6	no binding
B7	no binding
B8	no binding
B9	no binding
B10	no binding
B11	no binding
B12	no binding
B13	no binding
B14	no binding
B15	no binding
B16	no binding
B17	no binding
B18	no binding
B19	no binding
B20	no binding
